Measurements published in patent publication US20240343803A1.

Tests used:
[1] = target: human PVRIG (AcroBiosystems, Cat NO. PVG-H52H4) (human) (UniProt Q6DKI7); assay: ELISA, coated human PVRIG; negative control
[2] = target: cynomolgus monkey PVRIG (Novoprotein, Cat NO. C09B) (cynomolgus monkey); assay: ELISA, coated cynomolgus PVRIG; negative control
[3] = target: cynomolgus monkey TIGIT ECD-mFc (cynomolgus monkey); assay: ELISA, cynomolgus TIGIT ECD-mFc captured by anti-mouse IgG; negative control
[4] = target: human PVRIG-mFc protein (Acro, PVG-H5253) (human) (UniProt Q6DKI7); assay: HTRF competition, PVRIG-mFc with Bio-CD112-His as competitor; negative control
Sequence of human PVRIG-mFc protein (Acro, PVG-H5253) (human) (Q6DKI7 41-171 limits assumed, form in doubt): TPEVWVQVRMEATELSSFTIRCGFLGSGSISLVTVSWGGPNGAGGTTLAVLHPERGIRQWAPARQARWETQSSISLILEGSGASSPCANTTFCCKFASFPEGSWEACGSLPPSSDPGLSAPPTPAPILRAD

Sequence of cynomolgus monkey PVRIG (Novoprotein, Cat NO. C09B) (cynomolgus monkey) (chain, as listed by the source): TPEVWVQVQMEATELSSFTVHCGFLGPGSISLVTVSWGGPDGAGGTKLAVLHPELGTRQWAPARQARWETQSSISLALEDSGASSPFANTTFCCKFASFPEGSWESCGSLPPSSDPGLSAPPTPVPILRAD
Sequence of human PVRIG (AcroBiosystems, Cat NO. PVG-H52H4) (human) (Q6DKI7 41-171 limits assumed, form in doubt): as the sequence (Q6DKI7 41-171 limits assumed, form in doubt) above
Sequence of cynomolgus monkey TIGIT ECD-mFc (cynomolgus monkey) (chain, as listed by the source limits assumed): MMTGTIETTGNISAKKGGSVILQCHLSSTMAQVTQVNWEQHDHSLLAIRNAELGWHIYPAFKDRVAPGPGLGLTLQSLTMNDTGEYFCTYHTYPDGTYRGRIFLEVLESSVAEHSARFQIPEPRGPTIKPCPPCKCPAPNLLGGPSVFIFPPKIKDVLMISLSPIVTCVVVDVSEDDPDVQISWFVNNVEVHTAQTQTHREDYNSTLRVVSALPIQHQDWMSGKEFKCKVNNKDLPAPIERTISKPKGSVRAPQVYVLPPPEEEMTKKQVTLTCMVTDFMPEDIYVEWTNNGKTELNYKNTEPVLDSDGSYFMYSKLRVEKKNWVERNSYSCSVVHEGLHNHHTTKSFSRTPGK

anti-Fluorescein-hIgG1 (antibody)
EC50 [1]: 40300 nM
EC50 [2]: 4 nM
EC50 [3]: 0.687 nM
IC50 [4]: 0.0302 nM
